Measurements from patent US20240117043A1 (SHANGHAI JUNSHI BIOSCIENCES, published 2024).

Assays:
[1] = biological target: T1, recombinant human HX1 hCD112R Fc (human, UniProt Q6DKI7 41-171, limits assumed); assay: ELISA, relative binding activity, sample kept at 40 C for 2 weeks
T1 construct: Coated antigen of the ELISA (Suzhou Junmeng); also called human CD112R; not shown: Fc part
T1 sequence (looked up): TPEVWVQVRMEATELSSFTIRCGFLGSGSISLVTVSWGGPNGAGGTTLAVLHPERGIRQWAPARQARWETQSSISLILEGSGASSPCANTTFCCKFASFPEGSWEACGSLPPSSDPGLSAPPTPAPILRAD
Procedure: (§1) The antibody samples were exchanged into a pH 5.5 buffer system (20 mM histidine-histidine hydrochloride buffer, 230 mM trehalose) with the concentration of the samples controlled at about 5 mg/mL, and the buffer was aliquoted into vials at 500 μL/vial. The vials were placed in a 40° C. incubator to test stability at 0 W, 2 W and 4 W. Samples were sent for analysis according to Table 2. Stability was assessed by the following parameters: (a) the content of antibody monomers, aggregates or fragments determined by SEC-HPLC (size exclusion chromatography); (b) the molecular weight of the antibody determined by CE-SDS (sodium dodecyl sulfate capillary electrophoresis); and (c) the bioactivity of the antibody determined by an ELISA or reporter gene assay.

[2] = biological target: T2, recombinant human TIGIT (His Tag) (human, UniProt Q495A1 22-141); assay: as above
T2 construct: Coated antigen of the ELISA; not shown: His tag
T2 sequence (looked up): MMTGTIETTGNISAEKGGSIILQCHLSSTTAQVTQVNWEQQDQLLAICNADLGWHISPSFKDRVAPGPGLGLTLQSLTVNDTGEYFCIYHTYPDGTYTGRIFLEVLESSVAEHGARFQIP
Procedure: as §1

[3] = biological target: T1, recombinant human HX1 hCD112R Fc; assay: ELISA, plate coated with recombinant human HX1 hCD112R Fc, detection with HRP anti-human IgG4 Fc; unit taken from the concentration axis [3a]
Procedure: 2. Procedures [0255] a. A 96-well plate was coated with 1.0 μg/mL recombinant human HX1 hCD112R Fc (Suzhou Junmeng) as the antigen at 100 μL/well and incubated at 37° C. for 1.5 h. [0256] b. The plate was washed 4 times with 300 μL/well 1×PBST, and 2% BSA was added at 200 μL/well. The plate was blocked at 37° C. for 1.5 h. [0257] c. The plate was washed 4 times with 300 μL/well 1×PBST, and serial dilutions of the bispecific antibodies JS-1,3,5,9 and a negative control: antibody (anti-KLH hIgG4) (initial concentration 3.0 μg/mL, 3-fold serially diluted to 12 concentration points, 100 μL/well) were added. The plate was incubated at 37° C. for 1 h. [0258] d. The plate was washed 4 times with 300 μL/well 1×PBST. [0259] e. 5000-fold diluted horseradish peroxidase (HRP)-conjugated mouse anti-human IgG4 Fc antibody (Southern Biotech, 9200-05) was added at 100 μL/well, and the plate was incubated at 37° C. for 1 h. [0260] f. The plate was washed 4 times with 300 μL/well 1×PBST. [0261] g. 0.1 mg/mL TMB was added at 100 μL/well, and after the plate was incubated at 37° C. for 15 min, a 2 M solution of hydrochloric acid was added at 100 μL/well to stop the reactions. […] The absorbance was measured at 450 nm/620 nm on a microplate reader, and data were analyzed using Graphpad Prism7.

B1: bispecific antibody JS-3 (IgG4) (bispecific antibody)
chain 1: not shown
chain 2: DIVMTQSPDSLAVSLGERATINCKASQSVSNDVAWYQQKPGQPPKLLIYYVSHRFTGVPDRFSGSGSGTDFTLTISSLQAEDVAVYFCHQAYRSPWTFGQGTKLEIKRTVAAPSVFIFPPSDEQLKSGTASVVCLLNNFYPREAKVQWKVDNALQSGNSQESVTEQDSKDSTYSLSSTLTLSKADYEKHKVYACEVTHQGLSSPVTKSFNRGECSGGGSGGGSEGGGSEGGGSEGGGSEGGGSGGGSGEVQLVESGGGLVKPGGSLRLSCAASGFTFSSYHMSWVRQAPGKGLELVSAINSNGINTYYLDTVKGRFTISRDNAKNSLYLQMNSLRAEDTAVYYCARHEDYYGFAMDYWGQGTLVTVSSASTKGPSVFPLAPCSRSTSESTAALGCLVKDYFPEPVTVSWNSGALTSGVHTFPAVLQSSGLYSLSSVVTVPSSSLGTKTYTCNVDHKPSNTKVDKRVESKYGPPCPPCPAPEFLGGPSVFLFPPKPKDTLMISRTPEVTCVVVDVSQEDPEVQFNWYVDGVEVHNAKTKPREEQFNSTYRVVSVLTVLHQDWLNGKEYKCKVSNKGLPSSIEKTISKAKGQPREPQVCTLPPSQEEMTKNQVSLSCAVKGFYPSDIAVEWESNGQPENNYKTTPPVLDSDGSFFLVSRLTVDKSRWQEGNVFSCSVMHEALHNRFTQKSLSLSLGK
notes: Two-chain scFab/scFab knob-into-hole format, IgG4 Fc
CD112R binding activity Elisa (%) [1]: 98%
TIGIT binding activity Elisa (%) [2]: 88%
EC50 [3]: 4.02 ng/mL

B2: bispecific antibody JS-1 (IgG4) (bispecific antibody)
heavy: QVQLVQSGAEVKKPGASVKVSCKTSGYAFTEYTMHWVRQAPGKGLEWMGGINPNTGGTTYNQKFQGRVTLTVDKSSSTAYMELSSLRSEDTVVYYCAKLLRLMYYFDYWGQGTLVTVSSASTKGPSVFPLAPCSRSTSESTAALGCLVKDYFPEPVTVSWNSGALTSGVHTFPAVLQSSGLYSLSSVVTVPSSSLGTKTYTCNVDHKPSNTKVDKRVESKYGPPCPPCPAPEFLGGPSVFLFPPKPKDTLMISRTPEVTCVVVDVSQEDPEVQFNWYVDGVEVHNAKTKPREEQFNSTYRVVSVLTVLHQDWLNGKEYKCKVSNKGLPSSIEKTISKAKGQPREPQVYTLPPCQEEMTKNQVSLWCLVKGFYPSDIAVEWESNGQPENNYKTTPPVLDSDGSFFLYSRLTVDKSRWQEGNVFSCSVMHEALHNHYTQKSLSLSLGK
light: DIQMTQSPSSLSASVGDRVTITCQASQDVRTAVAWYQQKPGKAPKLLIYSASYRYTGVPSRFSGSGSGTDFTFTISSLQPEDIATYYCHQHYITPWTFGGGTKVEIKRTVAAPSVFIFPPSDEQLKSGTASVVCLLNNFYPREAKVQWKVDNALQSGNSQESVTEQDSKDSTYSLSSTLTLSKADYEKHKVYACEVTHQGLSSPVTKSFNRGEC
chain: DIVMTQSPDSLAVSLGERATINCKASQSVSNDVAWYQQKPGQPPKLLIYYVSHRFTGVPDRFSGSGSGTDFTLTISSLQAEDVAVYFCHQAYRSPWTFGCGTKLEIKGGGGSGGGGSGGGGSGGGGSEVQLVESGGGLVKPGGSLRLSCAASGFTFSSYHMSWVRQAPGKCLELVSAINSNGINTYYLDTVKGRFTISRDNAKNSLYLQMNSLRAEDTAVYYCARHEDYYGFAMDYWGQGTLVTVSSGGGGSGGGGSESKYGPPCPPCPAPEFLGGPSVFLFPPKPKDTLMISRTPEVTCVVVDVSQEDPEVQFNWYVDGVEVHNAKTKPREEQFNSTYRVVSVLTVLHQDWLNGKEYKCKVSNKGLPSSIEKTISKAKGQPREPQVCTLPPSQEEMTKNQVSLSCAVKGFYPSDIAVEWESNGQPENNYKTTPPVLDSDGSFFLVSRLTVDKSRWQEGNVFSCSVMHEALHNRFTQKSLSLSLGK
notes: Three-chain knob-into-hole format: anti-TIGIT Fab arm and anti-CD112R scFv arm, IgG4 Fc
CD112R binding activity Elisa (%) [1]: 87%
TIGIT binding activity Elisa (%) [2]: 75%
EC50 [3]: 4.03 ng/mL
